# Patent publication EP1207201A1, “NOVEL G PROTEIN-COUPLED RECEPTOR PROTEIN AND DNA THEREOF” (Takeda Chemical Industries, Ltd., priority 1999, dated 2001)
# Where no end group is shown, it is not given here.
# Biological target: T1, AQ27 (Homo sapiens, UniProt Q96P65)
# T1 construct: expressed in transfected cells; host or cells: CHO cells
# T1 sequence (Q96P65 1-431): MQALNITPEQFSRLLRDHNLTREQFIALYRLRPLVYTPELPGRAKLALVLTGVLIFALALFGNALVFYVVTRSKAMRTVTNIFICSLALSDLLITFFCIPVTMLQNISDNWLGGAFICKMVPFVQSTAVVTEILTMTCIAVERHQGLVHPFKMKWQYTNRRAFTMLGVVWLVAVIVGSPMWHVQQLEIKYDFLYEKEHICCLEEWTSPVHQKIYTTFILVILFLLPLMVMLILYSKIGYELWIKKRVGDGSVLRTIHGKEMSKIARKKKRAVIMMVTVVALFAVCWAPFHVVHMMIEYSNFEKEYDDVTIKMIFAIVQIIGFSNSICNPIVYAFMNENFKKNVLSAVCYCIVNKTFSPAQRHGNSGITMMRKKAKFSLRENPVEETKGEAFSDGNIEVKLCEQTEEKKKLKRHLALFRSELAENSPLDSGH
# Experiment: Cytosensor cell activation (increase of acidification rate) in AQ27-expressing CHO cells versus mock cells
# Type: cell-based
# Conditions: 10 µM, exposure 7 minutes and 2 seconds, AQ27-expressing CHO cells compared with mock cells
# Procedure: The vertical axis represents a cycle of measurement. "•" denotes the reactivity of receptor-expressed CHO cells and "○" denotes the reactivity of mock cells.
# The AQ27-expressing CHO cells and mock cells were inoculated in a capsule for Cytosensor at a concentration of 2.7 x 10^5 cells/capsule, respectively, incuvated overnight, and mounted onto Cytosensor(Molecular Device). After the acidification rare became stable, the cells were exposed to 10 µM Enkephalin-Arg-Phe amide (Bachem, H-2835) for 7 minutes and 2 seconds. The cell activation was measured using the increasing rate of the acidification rate as index.
substance,measurement,value
"Met-Enkephalin-Arg-Phe amide (YGGFMRF-NH2) [peptide amide purchased from Bachem, H-2835]",cell activation measured using the increasing rate of the acidification rate as index,specifically activates the AQ27-expressing CHO cells
